Laboratory results reported in US20150203579A1 (Regeneron, published 2015).

How the values were obtained:
[1] = target: T1, human PD-1 dimer (human PD-1-mFc or human PD-1-hFc) (human, UniProt Q15116 25-170); experiment: SPR, mAb captured, 25C;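 note: surface plasmon resonance on Biacore, PD-1 flowed over captured anti-PD-1 antibodies, rate constants from a 1:1 binding model fit, KD taken as kd/ka and t½ as ln2/(60·kd)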
T1 construct: also called hPD-1-mFc; hPD1-hFc

[2] = target: T2, recombinant cynomolgus monkey PD-1 expressed with a C-terminal myc-myc-hexahistidine tag (cynomolgus monkey (Macaca fascicularis)); experiment: SPR, mAb captured, 25C;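 note: rates from fitting Biacore data for PD-1 binding to anti-PD-1 antibodies with a 1:1 model, KD computed as koff/kon and t½ as ln2/(60·koff)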
T2 construct: monomeric; also called MfPD-1-MMH
T2 chain: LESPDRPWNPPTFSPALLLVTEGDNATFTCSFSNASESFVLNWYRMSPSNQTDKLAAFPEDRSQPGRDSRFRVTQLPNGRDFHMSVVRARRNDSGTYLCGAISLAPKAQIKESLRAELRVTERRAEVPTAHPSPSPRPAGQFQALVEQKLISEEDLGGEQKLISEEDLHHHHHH

[3] = target: T3, recombinant human PD-1 expressed with a C-terminal myc-myc-hexahistidine tag (human); experiment: SPR, mAb captured, 37C;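 note: rate constants from fitting sensorgrams to a 1:1 binding model, KD derived as kd divided by ka and half-life as ln2/(60·kd)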
T3 construct: monomeric; also called hPD-1-MMH; human PD-1-MMH

[4] = target: T1, human PD-1 dimer (human PD-1-mFc or …); experiment: SPR, mAb captured, 37C
[5] = target: T2, recombinant cynomolgus monkey PD-1 …; experiment: SPR, mAb captured, 37C

T1 sequence (Q15116 25-170 C93S): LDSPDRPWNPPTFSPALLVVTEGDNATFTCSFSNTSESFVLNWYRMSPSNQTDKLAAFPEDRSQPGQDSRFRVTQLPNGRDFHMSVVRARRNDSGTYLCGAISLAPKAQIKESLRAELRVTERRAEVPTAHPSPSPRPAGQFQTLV

B1: H2aM7794N (antibody, V domains shown)
VH: QLQLQESGPDLVKPSDTLSLTCTVSDDSISSTTYYWAWIRQPPGKGLEWIGSMSYNGNNYYNPSLKSRVAISAGTSQKQFSLKLTSVTAADTAVYHCARHLGYNGNWYPFDFWGQGILVTVSS
VL: not shown
notes: Human variable regions, mouse IgG2a Fc; also called H2M7794N
Kd [1]: 0.593 nM
koff [1]: 0.000106 s⁻¹
kon [1]: 179000 M⁻¹ s⁻¹
t½ [1]: 109 min
Kd [2]: 166 nM
koff [2]: 0.00599 s⁻¹
kon [2]: 36000 M⁻¹ s⁻¹
t½ [2]: 1.9 min
Kd [3]: 66.1 nM
koff [3]: 0.00792 s⁻¹
kon [3]: 120000 M⁻¹ s⁻¹
t½ [3]: 1.5 min
Kd [4]: 0.452 nM
koff [4]: 0.000211 s⁻¹
kon [4]: 468000 M⁻¹ s⁻¹
t½ [4]: 55 min
Kd [5]: 302 nM
koff [5]: 0.0201 s⁻¹
kon [5]: 66600 M⁻¹ s⁻¹
t½ [5]: 0.6 min

B2: H1M7799N (antibody, mouse IgG1, V domains shown)
VH: EVQLVESGGGLVQPGGSLRLSCAASGFTVSNNYMSWVRQAPGKGLEWVSVIYSGGFTYYTDSVKGRFTISRHNSKNTLYLQMNSLRAEDTAVYYCARYYYDTSDYWTFFDYWGQGTLVTVSS
VL: EIVMTQSPATLSVSPGERATLSCRASQSVSSNLAWYQQKPGQAPRLLIYGASTRATGIPARFSGSGSGTEFTLTISSLQSGDFAVYYCQQYNNWPLTFGGGTKVEIN
notes: Human variable regions, mouse IgG1 Fc
Kd [1]: 0.36 nM
koff [1]: 8.55e-05 s⁻¹
kon [1]: 238000 M⁻¹ s⁻¹
t½ [1]: 135 min
Kd [2]: 224 nM
koff [2]: 0.013 s⁻¹
kon [2]: 57800 M⁻¹ s⁻¹
t½ [2]: 0.9 min
Kd [3]: 536 nM
koff [3]: 0.0425 s⁻¹
kon [3]: 79400 M⁻¹ s⁻¹
t½ [3]: 0.3 min
Kd [4]: 0.411 nM
koff [4]: 0.000181 s⁻¹
kon [4]: 441000 M⁻¹ s⁻¹
t½ [4]: 64 min
Kd [5]: 530 nM
koff [5]: 0.0467 s⁻¹
kon [5]: 88000 M⁻¹ s⁻¹
t½ [5]: 0.2 min

B3: H1M7800N (antibody, mouse IgG1, V domains shown)
VH: EVQLVESGGGLVQPGGSLRLSCAASGFTVSNNYMSWVRQAPGKGLEWVSVIYSGGFTYYTDSVKGRFTISRHNSKNTLYLQMNSLRAEDTAVYYCARYYYDTSDYWTFFDYWGQGTLVTVSS
VL: EIVMTQSPATLSVSPGERATLSCRASQSVSSNLAWYQQKPGQAPRLLIYGASTRATGIPARFSGSGSGTEFTLTISSLQSGDFAVYYCQQYNNWPLTFGGGTKVEIN
notes: as for B2
Kd [1]: 0.509 nM
koff [1]: 7.72e-05 s⁻¹
kon [1]: 152000 M⁻¹ s⁻¹
t½ [1]: 150 min
Kd [2]: 176 nM
koff [2]: 0.0104 s⁻¹
kon [2]: 58900 M⁻¹ s⁻¹
t½ [2]: 1.1 min
Kd [3]: 510 nM
koff [3]: 0.0399 s⁻¹
kon [3]: 78300 M⁻¹ s⁻¹
t½ [3]: 0.3 min
Kd [4]: 0.45 nM
koff [4]: 0.000181 s⁻¹
kon [4]: 400000 M⁻¹ s⁻¹
t½ [4]: 64 min
Kd [5]: 527 nM
koff [5]: 0.0443 s⁻¹
kon [5]: 84000 M⁻¹ s⁻¹
t½ [5]: 0.3 min

B4: H2aM7798N (antibody, mouse IgG2a, V domains shown)
VH: EVQLLESGGVLVQPGGSLRLSCAASGFTFSNFGMTWVRQAPGKGLEWVSGISGGGRDTYFADSVKGRFTISRDNSKNTLYLQMNSLKGEDTAVYYCVKWGNIYFDYWGQGTLVTVSS
VL: DIQMTQSPSSLSASVGDSITITCRASLSINTFLNWYQQKPGKAPNLLIYAASSLHGGVPSRFSGSGSGTDFTLTIRTLQPEDFATYYCQQSSNTPFTFGPGTVVDFR
notes: Human variable regions, mouse IgG2a Fc; also called H2M7798N
Kd [1]: 0.0655 nM
koff [1]: 2.29e-05 s⁻¹
kon [1]: 350000 M⁻¹ s⁻¹
t½ [1]: 505 min
Kd [2]: 4.5 nM
koff [2]: 0.000393 s⁻¹
kon [2]: 87200 M⁻¹ s⁻¹
t½ [2]: 29 min
Kd [3]: 3.79 nM
koff [3]: 0.000656 s⁻¹
kon [3]: 173000 M⁻¹ s⁻¹
t½ [3]: 18 min
Kd [4]: 0.028 nM
koff [4]: 1.4e-05 s⁻¹
kon [4]: 490000 M⁻¹ s⁻¹
t½ [4]: 825 min
Kd [5]: 7 nM
koff [5]: 0.000993 s⁻¹
kon [5]: 142000 M⁻¹ s⁻¹
t½ [5]: 12 min

B5: H1M7789N (antibody, mouse IgG1, V domains shown)
VH: EVQLLESGGGLVQPGGSLRLSCSASGFTFSSYTMNWVRQAPGKGLEWVSGISDTGGNTYYTDSVKGRFTVSRDNSKNTLSLQMNSLRAEDTAVYYCAKDQGGSYPYYFHYWGQGSLVTVSS
VL: DIQMTQSPSSLSASVGDRVTITCRASQSISSYLIWYQQKPGTAPKFLIYAASSLQSGVPSRFSGCGSGTDFTLTISSLQPEDFATYYCQQSYSTPPITFGQGTRLEIK
notes: as for B2
Kd [1]: 1.1 nM
koff [1]: 4.31e-05 s⁻¹
kon [1]: 39100 M⁻¹ s⁻¹
t½ [1]: 268 min
Kd [2]: 7.89 nM
koff [2]: 0.000123 s⁻¹
kon [2]: 15500 M⁻¹ s⁻¹
t½ [2]: 94 min
Kd [3]: 6.52 nM
koff [3]: 0.000295 s⁻¹
kon [3]: 45300 M⁻¹ s⁻¹
t½ [3]: 39 min
Kd [4]: ≤ 0.0917 nM
koff [4]: ≤ 1e-05 s⁻¹
kon [4]: 109000 M⁻¹ s⁻¹
t½ [4]: ≥ 1160 min
Kd [5]: 8.5 nM
koff [5]: 0.000408 s⁻¹
kon [5]: 47900 M⁻¹ s⁻¹
t½ [5]: 28 min

B6: H2aM7791N (antibody, mouse IgG2a, V domains shown)
VH: QMQLQQWGAGLLKPSETLSLTCVVYGGSLNGYYWSWIRQSPGKGLEWIGEIDHSGSTNYNPSLKNRVTMSVDTSKIQFSLKLTSVTVADTAVYYCAREGLLPFDYWGQGTLVTVSS
VL: EIVLTQSPGTLSLSPGERVTLSCRASQSVYSNYLAWYQQNPGQAPRLLIYAASNRATGIPDRFSGSGSGTDFTLTISRLEPEDFAVYYCHQYATSPWTFGQGTKVEIK
notes: Human variable regions, mouse IgG2a Fc; also called H2M7791N
Kd [1]: 2.49 nM
koff [1]: 0.000101 s⁻¹
kon [1]: 40500 M⁻¹ s⁻¹
t½ [1]: 114 min
Kd [2]: 34.4 nM
koff [2]: 0.000553 s⁻¹
kon [2]: 16100 M⁻¹ s⁻¹
t½ [2]: 21 min
Kd [3]: 53.5 nM
koff [3]: 0.00224 s⁻¹
kon [3]: 41800 M⁻¹ s⁻¹
t½ [3]: 5.2 min
Kd [4]: 3.59 nM
koff [4]: 0.000179 s⁻¹
kon [4]: 49800 M⁻¹ s⁻¹
t½ [4]: 65 min
Kd [5]: 50.5 nM
koff [5]: 0.00191 s⁻¹
kon [5]: 37900 M⁻¹ s⁻¹
t½ [5]: 6 min

B7: H2aM7795N (antibody, mouse IgG2a, V domains shown)
VH: EVQVVESGGGLVEPGRSLRLSCKASGFTFDDYAMHWVRQTPGKALEWVSGINWSGNNIGYADSVKGRFTISKDDAKNSLYLQMNSLRPEDTALYYCTKDISITGTLDAFDVWGQGTMVTVSS
VL: DIQMTQSPISVSASVGDRVTITCRASQGISNWLAWYQQKPGIAPKLLIYSASSLQSGVPSRFRGSGSGTDFTLTIGSLQPEDFATYYCQQAHSFPLTFGGGTKVEIK
notes: Human variable regions, mouse IgG2a Fc; also called H2M7795N
Kd [1]: 0.227 nM
koff [1]: 3.14e-05 s⁻¹
kon [1]: 138000 M⁻¹ s⁻¹
t½ [1]: 368 min
Kd [2]: 20.1 nM
koff [2]: 0.000889 s⁻¹
kon [2]: 44400 M⁻¹ s⁻¹
t½ [2]: 13 min
Kd [3]: 67.8 nM
koff [3]: 0.00458 s⁻¹
kon [3]: 67500 M⁻¹ s⁻¹
t½ [3]: 2.5 min
Kd [4]: 0.371 nM
koff [4]: 6.13e-05 s⁻¹
kon [4]: 165000 M⁻¹ s⁻¹
t½ [4]: 188 min
Kd [5]: 60.2 nM
koff [5]: 0.00389 s⁻¹
kon [5]: 64700 M⁻¹ s⁻¹
t½ [5]: 3 min

B8: H2aM7788N (antibody, mouse IgG2a, V domains shown)
VH: EVQLVESGGGLVQPGGSLRLSCGASGFTFRNYDMHWVRQITGKGLEWVSAIGSAGDTYYPDSVKGRFTISRENAKNSLYLQMNSLRVGDTAVYYCTRDIHCSSTRCYGMDVWGQGTTVTVSS
VL: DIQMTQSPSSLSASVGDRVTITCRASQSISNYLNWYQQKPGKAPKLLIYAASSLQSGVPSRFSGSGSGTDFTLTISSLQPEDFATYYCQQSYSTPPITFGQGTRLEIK
notes: Human variable regions, mouse IgG2a Fc; also called H2M7788N
Kd [1]: 0.315 nM
koff [1]: 2.82e-05 s⁻¹
kon [1]: 89400 M⁻¹ s⁻¹
t½ [1]: 410 min
Kd [2]: 76.6 nM
koff [2]: 0.000662 s⁻¹
kon [2]: 8630 M⁻¹ s⁻¹
t½ [2]: 17 min
Kd [3]: 51.9 nM
koff [3]: 0.00149 s⁻¹
kon [3]: 28800 M⁻¹ s⁻¹
t½ [3]: 7.7 min
Kd [4]: 0.163 nM
koff [4]: 2.13e-05 s⁻¹
kon [4]: 131000 M⁻¹ s⁻¹
t½ [4]: 542 min
Kd [5]: 174 nM
koff [5]: 0.00328 s⁻¹
kon [5]: 18800 M⁻¹ s⁻¹
t½ [5]: 3.5 min
